# Measurements: US20100172907A1 (Hoffmann-La Roche, published 2010)
# Groups on a side chain read outwards from the residue. No end group written: not given here. NSMP = not defined here
# T1: BSA-conjugated Aβ heptapeptide AEFRHDC (C-terminal Cys coupled to NSMP-activated BSA)
# T1 construct: also called Peptide 2-7
# T1 peptide: AEFRHDC
# T2: BSA-conjugated Aβ heptapeptide LVFFAEC (reading uncertain; also: BSA conjugate)
# T2 construct: also called Peptide 17-22
# T2 peptide: LVFFAEC([NSMP-BSA])
# T3: BSA-conjugated Aβ heptapeptide VFFAEDC (C-terminal Cys coupled to NSMP-activated BSA)
# T3 construct: also called Peptide 18-23
# T3 peptide: VFFAEDC
# T4: BSA-conjugated Aβ heptapeptide FFAEDVC (C-terminal Cys coupled to NSMP-activated BSA)
# T4 construct: also called Peptide 19-24
# T4 peptide: FFAEDVC
# What was measured:
# [1] = target: T1, BSA-conjugated Aβ heptapeptide AEFRHDC; assay: ELISA
# [2] = target: T2, BSA-conjugated Aβ heptapeptide LVFFAEC; assay: ELISA
# [3] = target: T3, BSA-conjugated Aβ heptapeptide VFFAEDC; assay: ELISA
# [4] = target: T4, BSA-conjugated Aβ heptapeptide FFAEDVC; assay: ELISA
# human Aβ (1-40) peptide = target: T5, human Aβ (1-40) peptide (human); assay: SPR, immobilized fibers;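 note: biacore SPR using in vitro grown Aβ1-40 or Aβ1-42 fibrils immobilized on the chip with Fab analytes, KD from koff/kon fits or equilibrium isotherms based on total Fab concentration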
# T5 construct: also called Aβ1-40 fibers
# Aβ (1-42) peptide = target: T6, Aβ (1-42) peptide (human); assay: SPR, immobilized fibers;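 note: biacore SPR using in vitro grown Aβ1-40 or Aβ1-42 fibrils immobilized on the chip with Fab analytes, KD from koff/kon fits or equilibrium isotherms based on total Fab concentration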
# T6 construct: also called Aβ1-42 fibers; Aβ4
# 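Throughout, for OD ratio 17-22/BSA: ELISA of antibody at 10 or 2 µg/ml binding plate-coated BSA–peptide conjugates, detected with HRP anti-human Ig and TMB colour, mock-treated BSA without peptide as negative control.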
# 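Throughout, for OD ratio 18-23/BSA: ELISA of antibody at 10 or 2 µg/ml binding plate-coated BSA–peptide conjugates, detected with HRP anti-human Ig and TMB colour, mock-treated BSA without peptide as negative control.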
# 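Throughout, for OD ratio 2-7/BSA: ELISA of antibody at 10 or 2 µg/ml binding plate-coated BSA–peptide conjugates, detected with HRP anti-human Ig and TMB colour, mock-treated BSA without peptide as negative control.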
# 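Throughout, for Peptide-ratio 17-22/2-7: ELISA of antibody at 10 or 2 µg/ml binding plate-coated BSA–peptide conjugates, detected with HRP anti-human Ig and TMB colour, mock-treated BSA without peptide as negative control.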
Binder,OD ratio 2-7/BSA [1],OD ratio 17-22/BSA [2],Peptide-ratio 17-22/2-7 [2],OD ratio 18-23/BSA [3],Peptide-ratio 18-23/2-7 [3],OD ratio 19-24/BSA [4],Peptide-ratio 19-24/2-7 [4],Kd (human Aβ (1-40) peptide),Kd (Aβ (1-42) peptide)
"MS-Roche #7 Fab (Fab, V domains shown, parental HuCAL Fab; also called MSR-7 Fab; MS-R 7) VH: not shown VL: DIVLTQSPATLSLSPGERATLSCRASQSVSSSYLAWYQQKPGQAPRLLIYGASSRATGVPARFSGSGSGTDFTLTISSLEPEDFATYYCFQLYSDPFTFGQGTKVEIKR",24,4,0.17,7,0.29,4,0.17,1100 nM,1710 nM
"MS-Roche #7.2.L1 Fab (Fab, V domains shown) VH: not shown VL: DIVLTQSPATLSLSPGERATLSCRASQYVDRTYLAWYQQKPGQAPRLLIYGASSRATGVPARFSGSGSGTDFTLTISSLEPEDFATYYCQQIYSFPHTFGQGTKVEIKR",24,14,0.57,16,0.68,11,0.45,13.3 nM,12.7 nM
"MS-Roche #7.2 Fab (Fab, V domains shown) VH: not shown VL: DIVLTQSPATLSLSPGERATLSCRASQSVSSSYLAWYQQKPGQAPRLLIYGASSRATGVPARFSGSGSGTDFTLTISSLEPEDFATYYCQQIYSFPHTFGQGTKVEIKR",34,12,0.35,16,0.47,9,0.26,22 nM,58 nM
"MS-Roche #7.2.H3 Fab (Fab, V domains shown) VH: QVQLVESGGGLVQPGGSLRLSCAASGFTFSSYAMSWVRQAPGKGLEWVSAINANGYKTYYADSVKGRFTISRDNSKNTLYLQMNSLRAEDTAVYYCARGKGNTHKPYGYVRYFDVWGQGTLVTVSS VL: DIVLTQSPATLSLSPGERATLSCRASQSVSSSYLAWYQQKPGQAPRLLIYGASSRATGVPARFSGSGSGTDFTLTISSLEPEDFATYYCQQIYSFPHTFGQGTKVEIKR",33,17,0.52,20,0.61,18,0.55,45.4 nM,5.3 nM
"MS-Roche #7.2.H1 Fab (Fab, V domains shown) VH: QVQLVESGGGLVQPGGSLRLSCAASGFTFSSYAMSWVRQAPGKGLEWVSAINANGLKKYYADSVKGRFTISRDNSKNTLYLQMNSLRAEDTAVYYCARGKGNTHKPYGYVRYFDVWGQGTLVTVSS VL: DIVLTQSPATLSLSPGERATLSCRASQSVSSSYLAWYQQKPGQAPRLLIYGASSRATGVPARFSGSGSGTDFTLTISSLEPEDFATYYCQQIYSFPHTFGQGTKVEIKR",38,8,0.21,11,0.29,9,0.24,9.3 nM,10.2 nM
"MS-Roche #7.4.H2 Fab (Fab, V domains shown) VH: QVQLVESGGGLVQPGGSLRLSCAASGFTFSSYAMSWVRQAPGKGLEWVSAINYNGARIYYADSVKGRFTISRDNSKNTLYLQMNSLRAEDTAVYYCARGKGNTHKPYGYVRYFDVWGQGTLVTVSS VL: not shown",36,17,0.47,20,0.56,16,0.46,9.9 nM,6.2 nM
"MS-Roche #7.2.H4 Fab (Fab, V domains shown) VH: QVQLVESGGGLVQPGGSLRLSCAASGFTFSSYAMSWVRQAPGKGLEWVSAINSKGSRIYYADSVKGRFTISRDNSKNTLYLQMNSLRAEDTAVYYCARGKGNTHKPYGYVRYFDVWGQGTLVTVSS VL: DIVLTQSPATLSLSPGERATLSCRASQSVSSSYLAWYQQKPGQAPRLLIYGASSRATGVPARFSGSGSGTDFTLTISSLEPEDFATYYCQQIYSFPHTFGQGTKVEIKR",23,12,0.52,13,0.57,12,0.52,5.9 nM,5 nM
"MS-Roche #7.2.H5 Fab (Fab, V domains shown) VH: QVQLVESGGGLVQPGGSLRLSCAASGFTFSSYAMSWVRQAPGKGLEWVSAINATGRSKYYADSVKGRFTISRDNSKNTLYLQMNSLRAEDTAVYYCARGKGNTHKPYGYVRYFDVWGQGTLVTVSS VL: DIVLTQSPATLSLSPGERATLSCRASQSVSSSYLAWYQQKPGQAPRLLIYGASSRATGVPARFSGSGSGTDFTLTISSLEPEDFATYYCQQIYSFPHTFGQGTKVEIKR",30,13,0.43,18,0.6,15,0.5,8 nM,10.1 nM
"MS-Roche #7.2.H2 Fab (Fab, V domains shown) VH: QVQLVESGGGLVQPGGSLRLSCAASGFTFSSYAMSWVRQAPGKGLEWVSAINGTGMKKYYADSVKGRFTISRDNSKNTLYLQMNSLRAEDTAVYYCARGKGNTHKPYGYVRYFDVWGQGTLVTVSS VL: DIVLTQSPATLSLSPGERATLSCRASQSVSSSYLAWYQQKPGQAPRLLIYGASSRATGVPARFSGSGSGTDFTLTISSLEPEDFATYYCQQIYSFPHTFGQGTKVEIKR",16,10,0.63,10,0.63,10,0.63,8.2 nM,8.2 nM
"MS-Roche #7.9.H2 Fab (Fab, V domains shown, assembled) VH: QVQLVESGGGLVQPGGSLRLSCAASGFTFSSYAMSWVRQAPGKGLEWVSAINADGNRKYYADSVKGRFTISRDNSKNTLYLQMNSLRAEDTAVYYCARGKGNTHKPYGYVRYFDVWGQGTLVTVSS VL: DIVLTQSPATLSLSPGERATLSCRASQSVSSSYLAWYQQKPGQAPRLLIYGASSRATGVPARFSGSGSGTDFTLTISSLEPEDFATYYCLQIYNMPITFGQGTKVEIKR",35,3,0.08,6,0.16,8,0.23,5 nM,5.7 nM
"MS-Roche #3.4.H7 Fab (Fab, V domains shown) VH: QVQLVESGGGLVQPGGSLRLSCAASGFTFSSYAMSWVRQAPGKGLEWVSVISETGKNIYYADSVKGRFTISRDNSKNTLYLQMNSLRAEDTAVYYCARLTHYARYYRYFDVWGQGTLVTVSS VL: not shown",24,–,–,6,0.25,5,0.21,19.2 nM,31.7 nM
"MS-Roche #7.12.L1 Fab (Fab, V domains shown) VH: QVQLVESGGGLVQPGGSLRLSCAASGFTFSSYGMSWVRQAPGKGLEWVSNISGSGSSTYYADSVKGRFTISRDNSKNTLYLQMNSLRAEDTAVYYCARGKGNTHKPYGYVRYFDVWGQGTLVTVSS VL: DIVLTQSPATLSLSPGERATLSCRASQYVFRRYLAWYQQKPGQAPRLLISGSSNRATGVPARFSGSGSGTDFTLTISSLEPEDFAVYYCLQLYNIPNTFGQGTKVEIKR",16,10,0.6,12,0.7,10,0.59,–,3.8 nM
"MS-Roche #3.4.H2 Fab (Fab, V domains shown, H-CDR2 printed with 16 residues) VH: QVQLVESGGGLVQPGGSLRLSCAASGFTFSSYAMSWVRQAPGKGLEWVSVIDMVGHTYYADSVKGRFTISRDNSKNTLYLQMNSLRAEDTAVYYCARLTHYARYYRYFDVWGQGTLVTVSS VL: not shown",16,11,0.69,1,0.06,1,0.06,–,–
